{"source": "paper PMC11760825", "about": "“Prohibitin 1 tethers lipid membranes and regulates OPA1-mediated membrane fusion” (The Journal of Biological Chemistry, 2024)", "proteins": {"B1": {"name": "recombinant human prohibitin 1 (PHB1), C-terminally histidine-tagged, wild type (natural protein, UniProt P35232 1-272, looked up)", "chain": "MAAKVFESIGKFGLALAVAGGVVNSALYNVDAGHRAVIFDRFRGVQDIVVGEGTHFLIPWVQKPIIFDCRSRPRNVPVITGSKDLQNVNITLRILFRPVASQLPRIFTSIGEDYDERVLPSITTEILKSVVARFDAGELITQRELVSRQVSDDLTERAATFGLILDDVSLTHLTFGKEFTEAVEAKQVAQQEAERARFVVEKAEQQKKAAIISAEGDSKAAELIANSLATAGDGLIELRKLEAAEDIAYQLSRSRNITYLPAGQSVLLQLPQ"}}, "molecular_target": "the molecule itself", "assay": "cell-based or functional assay"}
{"protein": "B1", "values": [{"measurement": "OPA1-mediated liposome fusion (FRET lipid mixing; 0.5 μM L-OPA1 with 2 μM PHB1 against L-OPA1 alone; fusion activity from the first 2 min)", "result": "~3", "unit": "fold"}]}
